Substitutions are numbered along the chain they refer to.
Experiments:
Assay in all cases: EMSA
Conditions in all cases: 50 mM Tris-HCl pH 8.0, 100 mM NaCl, 40% glycerol, 5 mM DTT, 2 mM EDTA, 4 °C 1 h; 10% native PAGE in 0.5x TBE at 4 °C
[1] = target: T1, CutR R19A R19A (Mycobacterium sp. strain JC1) (UniProt D5G1X9)
T1 sequence: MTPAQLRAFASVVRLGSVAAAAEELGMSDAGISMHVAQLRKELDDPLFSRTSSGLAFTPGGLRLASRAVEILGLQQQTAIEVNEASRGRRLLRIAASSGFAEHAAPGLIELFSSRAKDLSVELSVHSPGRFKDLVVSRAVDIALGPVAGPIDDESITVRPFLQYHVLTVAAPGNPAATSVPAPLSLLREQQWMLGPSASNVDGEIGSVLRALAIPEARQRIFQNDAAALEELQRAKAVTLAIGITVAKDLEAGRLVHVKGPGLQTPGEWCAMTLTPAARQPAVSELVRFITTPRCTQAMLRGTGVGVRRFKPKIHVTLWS

[2] = target: T2, CutR R40A R40A (Mycobacterium sp. strain JC1) (UniProt D5G1X9)
T2 sequence: T1 sequence with A19R, R40A

[3] = target: T3, CutR Q5A Q5A (Mycobacterium sp. strain JC1) (UniProt D5G1X9)
T3 sequence: T1 sequence with Q5A, A19R

[4] = target: T4, CutR R7A R7A (Mycobacterium sp. strain JC1) (UniProt D5G1X9)
T4 sequence: T1 sequence with R7A, A19R

[5] = target: T5, CutR Q38A Q38A (Mycobacterium sp. strain JC1) (UniProt D5G1X9)
T5 sequence: T1 sequence with A19R, Q38A

In the case of “ACCCCGAGTTAAGTGATTCCTTAACTCGCTATTGACGCCATCGCGGCGGCAACGGAAACTAGCCACTTCAGCCACGACGTTGTGAGGATGATCACATGCAA (double strand) [IR1 to CRP motif fragment (101 bp)]”, the binding [1] is reported as “binds”, the binding [2] is reported as “no binding” and the binding [3] is reported as “binds”. The binding [4] was “binds” and the binding [5] was “binds”.

From publication PMC12609908
